Assay results reported in article PMC9482650, “Quantitative fragmentomics allow affinity mapping of interactomes” (Nature Communications, 2022).

T1: PDZD2_2, O15018
T1 sequence (O15018 329-429, limits assumed, looked up): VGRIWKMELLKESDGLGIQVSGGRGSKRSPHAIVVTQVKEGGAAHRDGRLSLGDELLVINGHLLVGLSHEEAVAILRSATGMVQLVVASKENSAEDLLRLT

T2: NHERF3_4, Q5T2W1
T2 sequence (Q5T2W1 373-468, limits assumed, looked up): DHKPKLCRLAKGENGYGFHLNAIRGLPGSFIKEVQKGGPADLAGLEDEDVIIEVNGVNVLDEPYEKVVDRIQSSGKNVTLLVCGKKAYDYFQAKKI

T3: APBA3_1, O96018
T3 sequence (O96018 389-490, limits assumed, looked up): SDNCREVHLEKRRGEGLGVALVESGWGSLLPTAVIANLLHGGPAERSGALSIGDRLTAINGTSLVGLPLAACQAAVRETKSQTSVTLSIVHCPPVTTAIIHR

T4: HTRA4, P83105
T4 sequence (P83105 378-476, limits assumed, looked up): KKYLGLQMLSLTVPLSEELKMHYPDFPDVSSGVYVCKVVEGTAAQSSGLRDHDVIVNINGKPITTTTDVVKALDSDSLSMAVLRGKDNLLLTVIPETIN

T5: PDZRN3_1, Q9UPQ7
T5 sequence (Q9UPQ7 244-349, limits assumed, looked up): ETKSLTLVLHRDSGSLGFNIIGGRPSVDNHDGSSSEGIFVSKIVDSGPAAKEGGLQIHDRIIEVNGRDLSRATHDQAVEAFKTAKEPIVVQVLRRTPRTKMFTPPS

T6: TIAM2, Q8IVF5
T6 sequence (Q8IVF5 885-986, limits assumed, looked up): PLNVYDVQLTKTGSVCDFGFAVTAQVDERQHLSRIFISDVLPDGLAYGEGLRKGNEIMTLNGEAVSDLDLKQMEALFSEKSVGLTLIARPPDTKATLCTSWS

T7: GRIP1_4, Q9Y3R0
T7 sequence (Q9Y3R0 467-571, limits assumed, looked up): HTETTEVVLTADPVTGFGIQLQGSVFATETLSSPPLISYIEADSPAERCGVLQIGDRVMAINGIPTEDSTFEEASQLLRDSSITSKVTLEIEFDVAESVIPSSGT

T8: LNX2_3, Q8N448
T8 sequence (Q8N448 463-564, limits assumed, looked up): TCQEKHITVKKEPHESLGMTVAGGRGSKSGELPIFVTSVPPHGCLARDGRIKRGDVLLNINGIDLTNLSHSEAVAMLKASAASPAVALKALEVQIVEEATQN

T9: SNTG2, Q9NY99
T9 sequence (Q9NY99 68-166, limits assumed, looked up): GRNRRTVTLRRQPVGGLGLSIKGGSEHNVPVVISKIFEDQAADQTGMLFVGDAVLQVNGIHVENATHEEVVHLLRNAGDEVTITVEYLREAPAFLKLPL

T10: LIN7C, Q9NUP9
T10 sequence (Q9NUP9 88-185, limits assumed, looked up): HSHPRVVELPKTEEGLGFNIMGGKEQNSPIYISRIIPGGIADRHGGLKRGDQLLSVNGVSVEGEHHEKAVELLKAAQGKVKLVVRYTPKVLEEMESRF

T11: ARHGEF11, O15085
T11 sequence (O15085 42-136, limits assumed, looked up): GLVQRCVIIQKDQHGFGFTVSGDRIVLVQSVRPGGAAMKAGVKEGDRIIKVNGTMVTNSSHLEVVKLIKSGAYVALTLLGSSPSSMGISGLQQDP

T12: SNTB1, Q13884
T12 sequence (Q13884 107-205, limits assumed, looked up): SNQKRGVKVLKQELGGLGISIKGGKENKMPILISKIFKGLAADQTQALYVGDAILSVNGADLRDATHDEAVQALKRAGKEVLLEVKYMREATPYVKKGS

B1: NEB, P20929 (peptide)
chain: MLPANYVEAI
B2: SLCO2B1, O94956 (peptide)
chain: PGKKPEDSRV
B3: CACNA1D, Q01668 (peptide)
chain: ADEMICITTL
B4: LRRC4, Q9HBW1 (peptide)
chain: TKDKVQETQI

Key:
Assay in all cases: holdup assay
Set-up in all cases: key: below the threshold = too weak to quantify, mostly under pKd 3.1 to 4
Details in all cases: plain residues with an end cap or a label only (N-terminal biotin on a linker: ado-ado)
[1] = target: T1, PDZD2_2, O15018
[2] = target: T2, NHERF3_4, Q5T2W1
[3] = target: LNX1_3, Q8TBB1
Chain of LNX1_3, Q8TBB1 (Q8TBB1 500-596): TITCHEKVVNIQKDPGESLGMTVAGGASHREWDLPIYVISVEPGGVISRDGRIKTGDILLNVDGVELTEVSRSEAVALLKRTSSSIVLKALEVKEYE

[4] = target: MAGI2_4, Q86UL8
Chain of MAGI2_4, Q86UL8 (Q86UL8 772-865): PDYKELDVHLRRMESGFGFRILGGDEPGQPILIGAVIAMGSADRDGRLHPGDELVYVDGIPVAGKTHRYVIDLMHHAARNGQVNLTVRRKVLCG

[5] = target: DLG1_3, Q12959
Chain of DLG1_3, Q12959 (Q12959 457-571): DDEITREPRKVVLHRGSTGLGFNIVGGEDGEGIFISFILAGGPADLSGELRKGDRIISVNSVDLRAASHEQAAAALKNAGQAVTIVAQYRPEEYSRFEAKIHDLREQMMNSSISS

[6] = target: T3, APBA3_1, O96018
[7] = target: LAP2, Q96RT1
Chain of LAP2, Q96RT1 (Q96RT1 other isoform, or with tags, fused parts or gaps): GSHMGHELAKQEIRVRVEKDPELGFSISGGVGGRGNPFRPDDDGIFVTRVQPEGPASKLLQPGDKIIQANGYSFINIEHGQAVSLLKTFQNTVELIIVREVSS

[8] = target: SNX27, Q96L92
[9] = target: DLG2_2, Q15700
Chain of DLG2_2, Q15700 (Q15700 189-283): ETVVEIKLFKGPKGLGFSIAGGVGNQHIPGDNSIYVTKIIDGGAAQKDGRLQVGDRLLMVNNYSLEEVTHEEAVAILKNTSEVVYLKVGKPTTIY

[10] = target: T4, HTRA4, P83105
[11] = target: T5, PDZRN3_1, Q9UPQ7
[12] = target: TJP1_3, Q07157
Chain of TJP1_3, Q07157 (Q07157 416-512): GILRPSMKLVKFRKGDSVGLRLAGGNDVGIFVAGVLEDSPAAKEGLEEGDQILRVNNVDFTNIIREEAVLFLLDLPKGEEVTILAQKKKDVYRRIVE

[13] = target: T6, TIAM2, Q8IVF5
[14] = target: T7, GRIP1_4, Q9Y3R0
[15] = target: T8, LNX2_3, Q8N448
[16] = target: FRMPD2_2, Q68DX3
Chain of FRMPD2_2, Q68DX3 (Q68DX3 944-1038): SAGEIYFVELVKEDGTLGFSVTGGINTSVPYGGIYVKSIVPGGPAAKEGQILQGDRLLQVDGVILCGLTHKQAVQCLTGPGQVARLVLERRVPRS

[17] = target: Inadl_3, Q8NI35
Chain of Inadl_3, Q8NI35 (Q8NI35 359-469): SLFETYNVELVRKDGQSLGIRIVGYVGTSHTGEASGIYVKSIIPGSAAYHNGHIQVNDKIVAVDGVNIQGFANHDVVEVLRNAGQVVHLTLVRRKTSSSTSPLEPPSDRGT

[18] = target: T9, SNTG2, Q9NY99
[19] = target: IL16_4, Q14005
Chain of IL16_4, Q14005 (Q14005 1229-1329): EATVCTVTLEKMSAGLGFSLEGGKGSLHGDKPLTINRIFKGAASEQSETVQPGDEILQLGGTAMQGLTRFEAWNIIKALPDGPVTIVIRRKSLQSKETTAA

[20] = target: AHNAK1, Q09666
Chain of AHNAK1, Q09666 (Q09666 4-100): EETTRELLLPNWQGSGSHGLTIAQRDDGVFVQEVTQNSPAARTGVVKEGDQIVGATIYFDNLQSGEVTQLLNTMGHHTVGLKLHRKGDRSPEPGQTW

[21] = target: LNX1_2, Q8TBB1
Chain of LNX1_2, Q8TBB1 (Q8TBB1 371-470): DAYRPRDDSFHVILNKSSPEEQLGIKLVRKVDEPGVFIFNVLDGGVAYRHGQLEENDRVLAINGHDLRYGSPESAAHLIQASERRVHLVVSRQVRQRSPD

[22] = target: T10, LIN7C, Q9NUP9
[23] = target: T11, ARHGEF11, O15085
[24] = target: T12, SNTB1, Q13884
[25] = target: SCRIB_2, Q14160
Chain of SCRIB_2, Q14160 (Q14160 857-960): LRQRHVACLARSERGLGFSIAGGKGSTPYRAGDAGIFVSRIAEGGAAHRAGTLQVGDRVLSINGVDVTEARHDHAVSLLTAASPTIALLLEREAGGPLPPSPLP

[26] = target: Inadl_6, Q8NI35
Chain of Inadl_6, Q8NI35 (Q8NI35 1058-1167): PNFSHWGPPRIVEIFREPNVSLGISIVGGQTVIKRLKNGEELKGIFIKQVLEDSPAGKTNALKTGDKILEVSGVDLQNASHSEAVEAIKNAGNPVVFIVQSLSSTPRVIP

| pKd [1] | pKd [2] | pKd [3] | pKd [4] | pKd [5] | pKd [6] | pKd [7] | pKd [8] | pKd [9] | pKd [10] | pKd [11] | pKd [12] | pKd [13] | pKd [14] | pKd [15] | pKd [16] | pKd [17] | pKd [18] | pKd [19] | pKd [20] | further results | Binder |
| --- | --- | --- | --- | --- | --- | --- | --- | --- | --- | --- | --- | --- | --- | --- | --- | --- | --- | --- | --- | --- | --- |
| below the threshold | below the threshold | below the threshold | below the threshold | below the threshold | below the threshold | below the threshold | below the threshold | below the threshold | 3.67 | below the threshold | below the threshold | 3.96 | below the threshold | below the threshold | below the threshold | below the threshold | below the threshold | below the threshold | below the threshold | pKd [21]: below the threshold; pKd [22]: below the threshold; pKd [23]: below the threshold; pKd [24]: below the threshold; pKd [25]: below the threshold; pKd [26]: below the threshold | B1 |
| 4.45 | below the threshold | below the threshold | below the threshold | below the threshold | below the threshold | 3.52 | 4.43 | 3.5 | below the threshold | below the threshold | below the threshold | below the threshold | below the threshold | below the threshold | below the threshold | below the threshold | 3.83 | below the threshold | below the threshold | pKd [21]: below the threshold; pKd [22]: below the threshold; pKd [23]: 3.48; pKd [24]: 3.94; pKd [25]: below the threshold; pKd [26]: below the threshold | B2 |
| 3.95 | 4.19 | below the threshold | below the threshold | 3.78 | below the threshold | 3.66 | 5.51 | 3.81 | 4.36 | below the threshold | below the threshold | 4.19 | below the threshold | below the threshold | 3.86 | 4.53 | 4.47 | below the threshold | below the threshold | pKd [21]: below the threshold; pKd [22]: below the threshold; pKd [23]: 5.77; pKd [24]: 4.84; pKd [25]: 3.88; pKd [26]: 4.62 | B3 |
| 4.23 | 3.57 | below the threshold | 3.72 | 4.18 | below the threshold | 3.54 | 5.5 | 4.67 | below the threshold | 4.4 | below the threshold | below the threshold | below the threshold | below the threshold | 3.82 | 3.56 | 5.1 | below the threshold | below the threshold | pKd [21]: below the threshold; pKd [22]: 3.98; pKd [23]: 3.73; pKd [24]: 5.08; pKd [25]: 4.41; pKd [26]: 3.85 | B4 |
